# Data reported in PMC4921858, “Structural and functional characterization of the CAP domain of pathogen-related yeast 1 (Pry1) protein” (Scientific Reports, 2016).
# Legend:
# [1] = biological target: CAP domain of pathogen-related yeast protein-1 (Pry1) from Saccharomyces cerevisiae (Saccharomyces cerevisiae); assay: SEC; 20 μg Pry1CAP injected on a Yarra SEC-2000 column, 0.5 ml/min, PBS pH 7.4 as mobile phase, calibrated with Bio-Rad gel filtration standards, in triplicate
# [2] = biological target: T1, Pathogen-related yeast 1 (Pry1), CAP domain (Pry1CAP) (Saccharomyces cerevisiae, UniProt P47032); assay: [3H]-cholesterol saturation radioligand binding with purified protein
# T1 construct: C-terminal CAP domain, Ser151 through Ala296 (Pry1CAP)
# T1 sequence (P47032 151-296): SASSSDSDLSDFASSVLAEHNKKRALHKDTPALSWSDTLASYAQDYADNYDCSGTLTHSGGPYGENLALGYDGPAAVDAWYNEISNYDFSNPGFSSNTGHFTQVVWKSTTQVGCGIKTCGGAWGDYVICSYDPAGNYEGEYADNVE
molecule,measurement,setting,value
CAP domain of pathogen-related yeast protein-1 (Pry1) from Saccharomyces cerevisiae (domain or fragment),stoichiometry N,[1],2
CC(C)CCC[C@@H](C)[C@H]1CC[C@H]2[C@@H]3CC=C4C[C@@H](O)CC[C@]4(C)[C@H]3CC[C@]12C [cholesterol],Kd,[2],2.08 ± 0.07 µM
